How the values were obtained:
Cyno 4-1BB ECD-AFH = biological target: T1, Cyno 4-1BB ECD-AFH (cynomolgus monkey); assay: SPR (Biacore 8K), construct captured, monovalent ECD
T1 construct: entry includes the tags; also called FOB004; Cyno CD137 ECD-avi-flag-his
T1 chain: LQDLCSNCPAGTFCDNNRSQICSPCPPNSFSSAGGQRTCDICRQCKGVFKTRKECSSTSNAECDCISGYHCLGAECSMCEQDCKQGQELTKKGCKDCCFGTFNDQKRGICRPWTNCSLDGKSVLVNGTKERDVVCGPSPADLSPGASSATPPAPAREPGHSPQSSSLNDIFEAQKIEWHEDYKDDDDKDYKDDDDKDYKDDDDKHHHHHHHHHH
Protocol: (§1) Mouse anti-human IgG (GE, BR-1008-39) at 25 μg/ml in 10 mM sodium acetate pH 5.0 was immobilized at a density of ˜10,000 response units (RU) onto each flow cell of a CM5 research-grade sensor chip (GE) by standard amine coupling chemistry. Each binding protein at approximately 100 nM in HBS-EP+ with 0.2% BSA buffer was captured in a flow cell with the immobilized anti-human IgG at a flow rate of 10 μL/min for 20 seconds, leaving one flow cell surface unmodified as the reference. Using a single-cycle kinetics mode, five different concentrations of ECD were sequentially injected through each flow cell at 30 μL/min for 300 seconds followed by a 600 second dissociation period. Regeneration was achieved by injection of 3 M MgCl₂ at a flow rate of 30 μL/min for 30 seconds followed by HBS-EP+ with 0.2% BSA buffer stabilization for 1 min.
(§2) Sensorgrams obtained from kinetic SPR measurements were analyzed by the double subtraction method. The signal from the reference flow cell was subtracted from the analyte binding response obtained from flow cells with immobilized or captured ligands. Buffer reference responses were then averaged from multiple injections. The averaged buffer reference responses were then subtracted from analyte binding responses, and the final double-referenced data were analyzed with Biacore T200 Evaluation software (2.0, GE), globally fitting data to derive kinetic parameters. All sensorgrams were fitted using a simple one-to-one binding model.
(§3) Using the BIACORE 8K SPR system, the affinity of these constructs for human and cyno 4-1BB, and human and cyno OX40 ECD, were determined using the methods described above. Monovalent binding affinity was determined by capturing the ADAPTIR™ bispecific construct on the chip and injecting monovalent ECD of the target at multiple concentrations.

Human OX40 ECD-AFH = biological target: T2, Human OX40 ECD-AFH (human); assay: as above
T2 construct: ECD'; entry includes the C-terminal tags; also called OXF003; Human OX40 ECD-avi-flag-his
T2 chain: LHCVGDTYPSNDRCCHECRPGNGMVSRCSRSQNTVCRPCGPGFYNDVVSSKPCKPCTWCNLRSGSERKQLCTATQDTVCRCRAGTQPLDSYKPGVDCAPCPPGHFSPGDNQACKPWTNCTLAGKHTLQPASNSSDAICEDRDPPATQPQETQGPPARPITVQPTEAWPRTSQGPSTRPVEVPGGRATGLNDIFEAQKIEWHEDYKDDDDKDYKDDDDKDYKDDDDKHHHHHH
Protocol: as §1, §2, §3

Human 4-1BB ECD-AFH = biological target: T3, Human 4-1BB ECD-AFH (human); assay: as above
T3 construct: entry includes the tags; also called FOB003; HUMAN CD137 ECD-AVI-FLAG-HIS
Protocol: as §1, §2, §3

Cyno OX40-AFH = biological target: T4, Cyno OX40-AFH (cynomolgus monkey); assay: as above
T4 construct: entry includes the tags; also called OXF005; cyno OX40 ECD
T4 chain: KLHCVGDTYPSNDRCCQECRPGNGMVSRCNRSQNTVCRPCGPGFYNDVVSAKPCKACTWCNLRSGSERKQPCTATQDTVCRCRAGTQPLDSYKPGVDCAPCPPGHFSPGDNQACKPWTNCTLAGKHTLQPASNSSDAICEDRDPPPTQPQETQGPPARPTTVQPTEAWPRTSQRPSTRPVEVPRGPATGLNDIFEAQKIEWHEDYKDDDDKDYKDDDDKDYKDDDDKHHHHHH
Protocol: as §1, §2, §3

Full-length Cyno 4-1BB = biological target: T5, Full-length Cyno 4-1BB (cynomolgus monkey, UniProt Q07011 24-255 (human entry)); assay: flow cytometry on Jurkat cells transfected with cynomolgus 4-1BB, goat anti-human Fc secondary antibody, MFI (Mean)
T5 construct: on Jurkat or CHO cells; also called FOB006; cynomolgus 4-1BB
T5 chain: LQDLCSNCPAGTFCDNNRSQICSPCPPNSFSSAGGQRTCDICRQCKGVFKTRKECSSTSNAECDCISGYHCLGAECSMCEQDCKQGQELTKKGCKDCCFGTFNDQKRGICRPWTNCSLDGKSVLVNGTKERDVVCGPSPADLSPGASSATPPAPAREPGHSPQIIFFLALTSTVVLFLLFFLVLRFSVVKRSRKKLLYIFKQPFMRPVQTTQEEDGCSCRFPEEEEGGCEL
Protocol: (§4) Serial dilutions of ADAPTIR™ constructs were incubated with transfected target cells and subsequently labelled with a fluorescently-conjugated goat-a-human Fc secondary antibody. […] (See Example 25.)

Full-length Human OX40 = biological target: T6, Full-length Human OX40 (human, UniProt P43489 29-277); assay: cell-based or functional assay
T6 sequence: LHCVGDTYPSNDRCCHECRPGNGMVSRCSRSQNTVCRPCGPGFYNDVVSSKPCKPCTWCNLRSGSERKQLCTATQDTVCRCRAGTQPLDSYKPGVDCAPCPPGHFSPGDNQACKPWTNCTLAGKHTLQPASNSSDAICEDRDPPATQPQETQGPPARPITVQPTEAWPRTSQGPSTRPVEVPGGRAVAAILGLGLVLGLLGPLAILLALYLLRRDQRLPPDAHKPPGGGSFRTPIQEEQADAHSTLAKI

Full-length Human 4-1BB = Full-length Human 4-1BB (human, UniProt Q07011 24-255); assay: cell-based or functional assay
Full-length Cyno OX40 = biological target: T7, Full-length Cyno OX40 (cynomolgus monkey, UniProt P43489 29-277 (human entry)); assay: flow cytometry on CHOK1SV cells transfected with cynomolgus OX40, goat anti-human Fc secondary antibody, MFI (Mean)
T7 construct: on CHO-K1SV cells; also called OXF004; cynomolgus OX40
T7 chain: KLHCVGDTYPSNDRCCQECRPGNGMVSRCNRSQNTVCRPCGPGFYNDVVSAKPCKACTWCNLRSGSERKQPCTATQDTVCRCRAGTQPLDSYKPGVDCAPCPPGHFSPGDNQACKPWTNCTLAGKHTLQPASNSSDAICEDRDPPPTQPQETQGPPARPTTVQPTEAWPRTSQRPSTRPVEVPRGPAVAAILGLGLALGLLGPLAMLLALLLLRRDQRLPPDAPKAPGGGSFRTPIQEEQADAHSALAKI
Protocol: as §4

Row | Binder | Kd (Cyno 4-1BB ECD-AFH) | koff (Cyno 4-1BB ECD-AFH) | kon (Cyno 4-1BB ECD-AFH) | Kd (Human OX40 ECD-AFH) | koff (Human OX40 ECD-AFH) | kon (Human OX40 ECD-AFH) | Kd (Human 4-1BB ECD-AFH) | koff (Human 4-1BB ECD-AFH) | kon (Human 4-1BB ECD-AFH) | Kd (Cyno OX40-AFH) | koff (Cyno OX40-AFH) | kon (Cyno OX40-AFH) | EC50 (read off the curve) (Full-length Cyno 4-1BB) | OX40 Reporter Assay EC50 (Full-length Human OX40) | OX40 Reporter Assay Max induction (Full-length Human OX40) | 4-1BB Reporter Assay EC50 (Full-length Human 4-1BB) | 4-1BB Reporter Assay Max induction (Full-length Human 4-1BB) | EC50 (read off the curve) (Full-length Cyno OX40)
1 | FXX01117 (bispecific antibody, ADAPTIR anti-4-1BB x anti-OX40, pI variant) EVQLVQSGAEVKKPGASVKVSCKASGYTFTSYWMNWVRQAPGQGLEWMGNIYPSGGSTNYAQKFQGRVTMTVDTSTSTVYMELSSLRSEDTAVYYCASFSDGYYAYAMDYWGQGTLVTVSSGGGGSGGGGSGGGGSGGGGSEIVMTQSPATLSLSPGERATLSCRASQSVSSYLNWYQQKPGQAPRLLIYYASRRHTGIPARFSGSGSGTDFTLTISSLQPEDFAVYYCQQGYNLPYTFGQGTKVEIKEPKSSDKTHTCPPCPAPPAAAPSVFLFPPKPKDTLMISRTPEVTCVVVDVSHEDPEVKFNWYVDGVEVHNAKTKPREEQYNSTYRVVSVLTVLHQDWLNGKEYKCAVSNKALPAPIEKTISKAKGQPREPQVYTLPPSRDELTKNQVSLTCLVKGFYPSDIAVEWESNGQPENNYKTTPPVLDSDGSFFLYSKLTVDKSRWQQGNVFSCSVMHEALHNHYTQKSLSLSPGGGGSPSSYVLTQPPSVSVAPGQTARITCGGNNIGSKSVNWFQQKPGQAPVLVVYDDSGRPSGIPKRFSGSTSGNTATLTISRVEAGDEADYYCQVWDSSSDHVVFGGGTKLTVLGGGGSGGGGSGGGGSGGGGSQVQLVESGGGVVQPGRSLRLSCAASGFTLSYYGMHWVRQAPGKGLEWVAAISHDGSDKYYADSVKGRFTISRDNSKNRLYLQMNSLRAEDTAVYYCSNDQFDPWGQGTLVTVSSR | 76 nM | 0.0072 s⁻¹ | 96000 M⁻¹ s⁻¹ | < 1 nM | 0.0003 s⁻¹ | 970000 M⁻¹ s⁻¹ | 17 nM | 0.0042 s⁻¹ | 250000 M⁻¹ s⁻¹ | < 1 nM | 0.0002 s⁻¹ | 1e+06 M⁻¹ s⁻¹ | ~0.3 nM | 0.018 nM | 6.22e+06 | 0.02 nM | 1.41e+06 | 1 to 2 nM
2 | FXX01116 (bispecific antibody, ADAPTIR anti-4-1BB x anti-OX40, pI variant) EVQLVQSGAEVKKPGASVKVSCKASGYTFTSYWMNWVRQAPGQGLEWMGNIYPSGGSTNYAQKFQGRVTMTVDTSTSTVYMELSSLRSEDTAVYYCASFSDGYYAYAMDYWGQGTLVTVSSGGGGSGGGGSGGGGSGGGGSEIVMTQSPATLSLSPGERATLSCRASQSVSSYLNWYQQKPGQAPRLLIYYASRRHTGIPARFSGSGSGTDFTLTISSLQPEDFAVYYCQQGYNLPYTFGQGTKVEIKEPKSSDKTHTCPPCPAPPAAAPSVFLFPPKPKDTLMISRTPEVTCVVVDVSHEDPEVKFNWYVDGVEVHNAKTKPREEQYNSTYRVVSVLTVLHQDWLNGKEYKCAVSNKALPAPIEKTISKAKGQPREPQVYTLPPSRDELTKNQVSLTCLVKGFYPSDIAVEWESNGQPENNYKTTPPVLDSDGSFFLYSKLTVDKSRWQQGNVFSCSVMHEALHNHYTQKSLSLSPGGGGSPSSYVLTQPPSVSVAPGQTARITCGGNNIGSKSVNWFQQKPGQAPVLVVYDDSGRPSGVPSRFSGSTSGNTATLTISRVEAGDEADYYCQVWDSSSDHVVFGGGTKLTVLGGGGSGGGGSGGGGSGGGGSQVQLVESGGGVVQPGRSLRLSCAASGFTLSYYGMHWVRQAPGKGLEWVAAISHDGSDKYYADSVKGRFTISRDNSKNRLYLQMNSLRAEDTAVYYCSNDQFDPWGQGTLVTVSSR | 81 nM | 0.0079 s⁻¹ | 98000 M⁻¹ s⁻¹ | < 1 nM | 0.00044 s⁻¹ | 880000 M⁻¹ s⁻¹ | 17 nM | 0.0046 s⁻¹ | 270000 M⁻¹ s⁻¹ | < 1 nM | 0.00027 s⁻¹ | 1e+06 M⁻¹ s⁻¹ | ~0.3 nM | 0.017 nM | 5.95e+06 | 0.019 nM | 1.39e+06 | 1 to 2 nM
